Test results reported in patent publication US7166426.
“And” between values parts separate entries of the source, which are not always exact repeats. Equal entries are not always repeated.

What was measured:
[1] = target: NS3/4a conformational epitope with Thr to Pro and Ser to Ile substitutions (hepatitis C virus, HCV-1 (HCV1a)) (UniProt P26664); test: ELISA, antigen coated on microtiter plate, negative control
[2] = target: c200 antigen; test: as above
[3] = target: denatured NS3/4a (hepatitis C virus, HCV-1 (HCV1a)) (UniProt P26664); test: as above
[4] = target: NS3/4a conformational epitope with Thr to Pro and Ser to Ile substitutions (hepatitis C virus, HCV-1 (HCV1a)) (UniProt P26664); test: ELISA, antigen coated on microtiter plate, average of the negative controls
[5] = target: c200 antigen; test: as above
[6] = target: denatured NS3/4a (hepatitis C virus, HCV-1 (HCV1a)) (UniProt P26664); test: as above

How did the OD [1] turn out when HCV 3.0 Controls, negative control was run?
The OD was 0.023 OD and 0.027 OD and 0.021 OD.

What about the OD [2] of the same substance?
Its OD is 0.008 OD and 0.007 OD and 0.005 OD.

And the OD [3]?
Its OD is 0.024 OD and 0.017 OD.

And the OD (average of Neg. Cont.) [4]?
The OD (average of Neg. Cont.) was 0.024 OD.

What about the OD (average of Neg. Cont.) [5] of the same substance?
The OD (average of Neg. Cont.) was 0.007 OD.

What about the OD (average of Neg. Cont.) [6] of the same substance?
Its OD (average of Neg. Cont.) is 0.022 OD.
